In US20150344570A1 (published 2015):

Columns and labels:
[1] = target: T1, FcγRIa extracellular domain with C-terminal His tag (human, UniProt P12314 16-292); test: SPR; He/Con_1a divided by He/Con_2b (FcγRIa against FcγRIIb)
T1 construct: extracellular domain; also called FcgRI; CD64; not shown: His tag at the C terminus

[2] = target: T2, FcγRIIb extracellular domain with C-terminal His tag (human, UniProt P31994 43-217); test: SPR (Biacore), antibody captured, FcγR analyte; relative to GpH7-A5/GpH7-B3/GpL16-k0 = 100
T2 construct: extracellular domain; also called FcgRIIb; CD32B; not shown: His tag at the C terminus
T2 sequence (looked up): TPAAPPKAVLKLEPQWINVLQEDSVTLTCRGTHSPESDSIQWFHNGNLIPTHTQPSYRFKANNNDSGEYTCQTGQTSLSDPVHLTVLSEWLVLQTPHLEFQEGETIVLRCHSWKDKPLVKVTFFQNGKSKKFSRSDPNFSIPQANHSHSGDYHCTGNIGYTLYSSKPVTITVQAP

[3] = target: T1, FcγRIa extracellular domain with …; test: as above

T1 sequence (P12314 16-292): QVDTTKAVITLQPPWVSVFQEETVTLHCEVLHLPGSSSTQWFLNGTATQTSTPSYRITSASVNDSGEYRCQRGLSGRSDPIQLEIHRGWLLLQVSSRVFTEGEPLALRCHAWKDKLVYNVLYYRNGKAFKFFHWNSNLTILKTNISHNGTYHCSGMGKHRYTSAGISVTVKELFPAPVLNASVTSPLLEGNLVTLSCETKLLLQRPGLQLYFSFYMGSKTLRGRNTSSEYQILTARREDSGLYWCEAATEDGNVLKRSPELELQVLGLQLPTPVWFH

B1: GpH7-A5/GpH7-B3 variant P238_12R/GpL16-k0 (antibody, human IgG1, kappa)
heavy 1: not shown
heavy 2: not shown
light: DIVMTQSPLSLPVTPGEPASISCQASESLVHSNRNTYLHWYLQKPGQSPQLLIYKVSNRFSGVPDRFSGSGSGTDFTLKISRVEAEDVGVYYCSQNTHVPPTFGQGTKVEIERTVAAPSVFIFPPSDEQLKSGTASVVCLLNNFYPREAKVQWKVDNALQSGNSQESVTEQDSKDSTYSLSSTLTLSKADYEKHKVYACEVTHQGLSSPVTKSFNRGEC
notes: Heterodimerized anti-glypican-3 IgG1; mutation only in the GpH7-B3 H chain; also called He Ab
Which results are given for B1?
He_1a/2b (Ia/IIb) [1]: 1.5 ratio; He/Con_2b [2]: 51.4 % of HeCon Ab; He/Con_1a [3]: 77.3 % of HeCon Ab

B2: GpH7-A5/GpH7-B3 variant P238_13S/GpL16-k0 (antibody, human IgG1, kappa)
heavy 1: not shown
heavy 2: not shown
light: DIVMTQSPLSLPVTPGEPASISCQASESLVHSNRNTYLHWYLQKPGQSPQLLIYKVSNRFSGVPDRFSGSGSGTDFTLKISRVEAEDVGVYYCSQNTHVPPTFGQGTKVEIERTVAAPSVFIFPPSDEQLKSGTASVVCLLNNFYPREAKVQWKVDNALQSGNSQESVTEQDSKDSTYSLSSTLTLSKADYEKHKVYACEVTHQGLSSPVTKSFNRGEC
notes: as for B1
For B2, which “He_1a/2b (Ia/IIb)” value [1] is on record?
Its value is 1.37 ratio.

What about the He/Con_2b [2] of the same binder?
The He/Con_2b was 70.4 % of HeCon Ab.

And the He/Con_1a [3]?
Its He/Con_1a is 96.6 % of HeCon Ab.

B3: GpH7-A5/GpH7-B3 variant P238_14T/GpL16-k0 (antibody, human IgG1, kappa)
heavy 1: not shown
heavy 2: not shown
light: DIVMTQSPLSLPVTPGEPASISCQASESLVHSNRNTYLHWYLQKPGQSPQLLIYKVSNRFSGVPDRFSGSGSGTDFTLKISRVEAEDVGVYYCSQNTHVPPTFGQGTKVEIERTVAAPSVFIFPPSDEQLKSGTASVVCLLNNFYPREAKVQWKVDNALQSGNSQESVTEQDSKDSTYSLSSTLTLSKADYEKHKVYACEVTHQGLSSPVTKSFNRGEC
notes: as for B1
How did the “He_1a/2b (Ia/IIb)” value [1] turn out when B3 was run?
The value was 1.8 ratio.

What about the He/Con_2b [2] of the same binder?
Its He/Con_2b is 50.7 % of HeCon Ab.

And the He/Con_1a [3]?
Its He/Con_1a is 91.1 % of HeCon Ab.

B4: GpH7-A5/GpH7-B3 variant P238_18N/GpL16-k0 (antibody, human IgG1, kappa)
heavy 1: not shown
heavy 2: not shown
light: DIVMTQSPLSLPVTPGEPASISCQASESLVHSNRNTYLHWYLQKPGQSPQLLIYKVSNRFSGVPDRFSGSGSGTDFTLKISRVEAEDVGVYYCSQNTHVPPTFGQGTKVEIERTVAAPSVFIFPPSDEQLKSGTASVVCLLNNFYPREAKVQWKVDNALQSGNSQESVTEQDSKDSTYSLSSTLTLSKADYEKHKVYACEVTHQGLSSPVTKSFNRGEC
notes: as for B1
How did the “He_1a/2b (Ia/IIb)” value [1] turn out when B4 was run?
The value was 1.27 ratio.

What about the He/Con_2b [2] of the same binder?
The He/Con_2b was 73.2 % of HeCon Ab.

And the He/Con_1a [3]?
Its He/Con_1a is 93.3 % of HeCon Ab.

B5: GpH7-A5/GpH7-B3 variant S239_04F/GpL16-k0 (antibody, human IgG1, kappa)
heavy 1: not shown
heavy 2: not shown
light: DIVMTQSPLSLPVTPGEPASISCQASESLVHSNRNTYLHWYLQKPGQSPQLLIYKVSNRFSGVPDRFSGSGSGTDFTLKISRVEAEDVGVYYCSQNTHVPPTFGQGTKVEIERTVAAPSVFIFPPSDEQLKSGTASVVCLLNNFYPREAKVQWKVDNALQSGNSQESVTEQDSKDSTYSLSSTLTLSKADYEKHKVYACEVTHQGLSSPVTKSFNRGEC
notes: as for B1
Which “He_1a/2b (Ia/IIb)” value [1] does the source give for B5 here?
Its value is 2.13 ratio.

And the He/Con_2b [2]?
The He/Con_2b was 44.1 % of HeCon Ab.

And the He/Con_1a [3]?
Its He/Con_1a is 93.8 % of HeCon Ab.

B6: GpH7-A5/GpH7-B3 variant S239_11K/GpL16-k0 (antibody, human IgG1, kappa)
heavy 1: not shown
heavy 2: not shown
light: DIVMTQSPLSLPVTPGEPASISCQASESLVHSNRNTYLHWYLQKPGQSPQLLIYKVSNRFSGVPDRFSGSGSGTDFTLKISRVEAEDVGVYYCSQNTHVPPTFGQGTKVEIERTVAAPSVFIFPPSDEQLKSGTASVVCLLNNFYPREAKVQWKVDNALQSGNSQESVTEQDSKDSTYSLSSTLTLSKADYEKHKVYACEVTHQGLSSPVTKSFNRGEC
notes: as for B1
With B6 as the binder, how does the “He_1a/2b (Ia/IIb)” value [1] read?
The value was 2.75 ratio.

What about the He/Con_2b [2] of the same binder?
Its He/Con_2b is 24.7 % of HeCon Ab.

And the He/Con_1a [3]?
The He/Con_1a was 68 % of HeCon Ab.

B7: GpH7-A5/GpH7-B3 variant S239_12R/GpL16-k0 (antibody, human IgG1, kappa)
heavy 1: not shown
heavy 2: not shown
light: DIVMTQSPLSLPVTPGEPASISCQASESLVHSNRNTYLHWYLQKPGQSPQLLIYKVSNRFSGVPDRFSGSGSGTDFTLKISRVEAEDVGVYYCSQNTHVPPTFGQGTKVEIERTVAAPSVFIFPPSDEQLKSGTASVVCLLNNFYPREAKVQWKVDNALQSGNSQESVTEQDSKDSTYSLSSTLTLSKADYEKHKVYACEVTHQGLSSPVTKSFNRGEC
notes: as for B1
What does the source list for B7?
He_1a/2b (Ia/IIb) [1]: 2.21 ratio; He/Con_2b [2]: 39.1 % of HeCon Ab; He/Con_1a [3]: 86.5 % of HeCon Ab

B8: GpH7-A5/GpH7-B3 variant S239_15Y/GpL16-k0 (antibody, human IgG1, kappa)
heavy 1: not shown
heavy 2: not shown
light: DIVMTQSPLSLPVTPGEPASISCQASESLVHSNRNTYLHWYLQKPGQSPQLLIYKVSNRFSGVPDRFSGSGSGTDFTLKISRVEAEDVGVYYCSQNTHVPPTFGQGTKVEIERTVAAPSVFIFPPSDEQLKSGTASVVCLLNNFYPREAKVQWKVDNALQSGNSQESVTEQDSKDSTYSLSSTLTLSKADYEKHKVYACEVTHQGLSSPVTKSFNRGEC
notes: as for B1
What does the source list for B8?
He_1a/2b (Ia/IIb) [1]: 2.57 ratio; He/Con_2b [2]: 34.9 % of HeCon Ab; He/Con_1a [3]: 89.8 % of HeCon Ab
